This passage reports binding signal results from article PMC10681739, “High-throughput data and modeling reveal insights into the mechanisms of cooperative DNA-binding by transcription factor proteins”.

In this data set the target is ETS1:RUNX1 (Homo sapiens, UniProt P14921;Q01196 full;full). Put plainly: gcPBM; 1 nM ETS1 + 25 nM RUNX1, anti-ETS1 signal, normalised. Conditions: tags: N-terminal GST (pDEST15), kept (PMC6008103); copies: 1;1; label: surface-attached array probe.
Chain of ETS1:RUNX1 (P14921 whole entry, chain 1 of 2): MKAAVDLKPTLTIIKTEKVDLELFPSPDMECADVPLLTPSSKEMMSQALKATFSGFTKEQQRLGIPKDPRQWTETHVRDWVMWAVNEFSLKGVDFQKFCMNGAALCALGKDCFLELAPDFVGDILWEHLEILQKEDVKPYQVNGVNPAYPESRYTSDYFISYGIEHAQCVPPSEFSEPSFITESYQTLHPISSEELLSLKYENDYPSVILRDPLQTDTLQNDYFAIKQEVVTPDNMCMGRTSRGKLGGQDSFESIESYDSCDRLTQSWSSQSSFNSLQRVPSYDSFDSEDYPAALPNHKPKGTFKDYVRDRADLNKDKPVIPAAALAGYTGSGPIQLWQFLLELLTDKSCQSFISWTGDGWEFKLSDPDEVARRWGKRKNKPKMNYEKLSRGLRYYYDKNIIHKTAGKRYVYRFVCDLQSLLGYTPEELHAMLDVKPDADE
Chain of ETS1:RUNX1 (Q01196 whole entry, chain 2 of 2): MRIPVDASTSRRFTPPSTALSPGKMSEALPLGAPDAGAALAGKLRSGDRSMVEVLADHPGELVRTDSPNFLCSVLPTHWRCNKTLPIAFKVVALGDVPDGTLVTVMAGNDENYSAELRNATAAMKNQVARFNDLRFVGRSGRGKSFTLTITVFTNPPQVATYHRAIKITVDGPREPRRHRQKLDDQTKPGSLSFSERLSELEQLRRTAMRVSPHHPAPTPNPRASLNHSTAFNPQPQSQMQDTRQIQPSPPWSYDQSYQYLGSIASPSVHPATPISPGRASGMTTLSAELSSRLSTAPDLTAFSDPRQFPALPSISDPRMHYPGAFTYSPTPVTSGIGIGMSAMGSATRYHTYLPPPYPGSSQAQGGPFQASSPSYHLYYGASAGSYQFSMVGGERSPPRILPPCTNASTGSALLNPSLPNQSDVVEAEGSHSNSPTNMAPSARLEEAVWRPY

B1: Table S2 A row 1378 (dsDNA)
DNA 1: CAAGAGAAAGGAAGTGGAAGCTCTTGTGGTCTGGAA
DNA 2: TTCCAGACCACAAGAGCTTCCACTTCCTTTCTCTTG
On to B1, for which the binding signal was 5370 PBM fluorescence, median of replicate spots.

B2: Table S2 A row 329 (dsDNA)
DNA 1: TCCAGCTCCACAGGATGTGGTGAGTGAAGCAGCAAG
DNA 2: CTTGCTGCTTCACTCACCACATCCTGTGGAGCTGGA
On to B2, for which the binding signal was 6260 PBM fluorescence, median of replicate spots.

B3: Table S2 A row 1719 (dsDNA)
DNA 1: GCCACACTTCCGGCGGGGCTGCGACCGCAGAGGGGC
DNA 2: GCCCCTCTGCGGTCGCAGCCCCGCCGGAAGTGTGGC
Turning to B3, the binding signal was 5900 PBM fluorescence, median of replicate spots.

B4: Table S2 A row 1723 (dsDNA)
DNA 1: CAACCCGGAAGCACTAACGGAGAAACCGCAACTCGG
DNA 2: CCGAGTTGCGGTTTCTCCGTTAGTGCTTCCGGGTTG
B4: the binding signal is 5540 PBM fluorescence, median of replicate spots.

B5: Table S2 A row 1241 (dsDNA)
DNA 1: AAGAAAAAGGGAGGATGTGGTTTAGCAAAAGCACTG
DNA 2: CAGTGCTTTTGCTAAACCACATCCTCCCTTTTTCTT
On to B5, for which the binding signal is 5810 PBM fluorescence, median of replicate spots.

B6: Table S2 A row 1154 (dsDNA)
DNA 1: GGCCTCGGCCACATCCGGGTTCCACCGCAGATTCGG
DNA 2: CCGAATCTGCGGTGGAACCCGGATGTGGCCGAGGCC
Regarding B6, the binding signal was 5630 PBM fluorescence, median of replicate spots.

B7: Table S2 A row 601 (dsDNA)
DNA 1: CATTCAGTAAAAGGATGTGGTTTAGAACAGATGAAA
DNA 2: TTTCATCTGTTCTAAACCACATCCTTTTACTGAATG
Take B7: the binding signal was 6340 PBM fluorescence, median of replicate spots.

B8: Table S2 A row 1069 (dsDNA)
DNA 1: AAAGCATTTCCTGCCTTGACTTAACCACAAGACAGG
DNA 2: CCTGTCTTGTGGTTAAGTCAAGGCAGGAAATGCTTT
Turning to B8, the binding signal was 6290 PBM fluorescence, median of replicate spots.

B9: Table S2 A row 719 (dsDNA)
DNA 1: TTGCCATTCCAGGAAATGAGCTTACCACATTGACTG
DNA 2: CAGTCAATGTGGTAAGCTCATTTCCTGGAATGGCAA
As to B9, the binding signal was 6220 PBM fluorescence, median of replicate spots.

B10: Table S2 A row 733 (dsDNA)
DNA 1: CAGTGAACAGTTTCCTGTTCCTGTGGTTTTGACTTT
DNA 2: AAAGTCAAAACCACAGGAACAGGAAACTGTTCACTG
B10: the binding signal was 5690 PBM fluorescence, median of replicate spots.

B11: Table S2 A row 1086 (dsDNA)
DNA 1: TTTCTGACACTCTCAGGATGTGGGTTTTCACACTGT
DNA 2: ACAGTGTGAAAACCCACATCCTGAGAGTGTCAGAAA
B11: the binding signal is 6500 PBM fluorescence, median of replicate spots.

B12: Table S2 A row 1225 (dsDNA)
DNA 1: GCTAGACAGGAAACAGTGAGCTTCTGTGGGCAGGAG
DNA 2: CTCCTGCCCACAGAAGCTCACTGTTTCCTGTCTAGC
As to B12, the binding signal was 5960 PBM fluorescence, median of replicate spots.

B13: Table S2 A row 1614 (dsDNA)
DNA 1: ACCTCAAGCCCAGGATGTGGTTTGGCCACTATTGAG
DNA 2: CTCAATAGTGGCCAAACCACATCCTGGGCTTGAGGT
B13: the binding signal is 6100 PBM fluorescence, median of replicate spots.

B14: Table S2 A row 1363 (dsDNA)
DNA 1: ATGAGCTATTTCCTGCCTTGTGGTCAGAGCCAGACT
DNA 2: AGTCTGGCTCTGACCACAAGGCAGGAAATAGCTCAT
B14: the binding signal was 5600 PBM fluorescence, median of replicate spots.

B15: Table S2 A row 1530 (dsDNA)
DNA 1: CCAGGCGGAAGCGGCCGGGAGTAGCGCTGCGGTTGG
DNA 2: CCAACCGCAGCGCTACTCCCGGCCGCTTCCGCCTGG
Take B15: the binding signal was 5640 PBM fluorescence, median of replicate spots.

B16: Table S2 A row 391 (dsDNA)
DNA 1: TGCAAAAAAACAGGAAACACCCAGCCGCAAATTATA
DNA 2: TATAATTTGCGGCTGGGTGTTTCCTGTTTTTTTGCA
On to B16, for which the binding signal is 6020 PBM fluorescence, median of replicate spots.

B17: Table S2 A row 1092 (dsDNA)
DNA 1: CTCACAGAGCAAGTAGGATGTGGTTTCCAGGGGCTG
DNA 2: CAGCCCCTGGAAACCACATCCTACTTGCTCTGTGAG
As to B17, the binding signal was 5400 PBM fluorescence, median of replicate spots.
